According to patent US12649778:
Changes are numbered by the printed parent chain. Names and notes keep the numbering of the source. Values joined by “and” are separate entries in the source; they are usually repeats but may differ in a detail not shown here. Equal entries are not always repeated.

B1: 65D3 chimeric Fab, NNK library L3 mutant S to A (VL S25A) (Fab, V domains shown)
VH: QSLEESGGRLVTPGGSLTLTCTVSGFSLSTHDISWVRQAPGKGLEWIGVIARRGSTYYASWAKGRFTISKTSTTVDLKITSPTIEDTATYFCAREEFDFWGQGTLVTVSS
VL: AVLTQTASPVSAAVGGTVTISCQSAQSVYNNKELSWFQQKPGQPPKLLISYASTLASGVPSRFKGSGSGTQFTLTISDLECDDAATYYCLGGYASTIDMWAFGGGTEVVVK
B2: 65D3 chimeric Fab, NNK library L5 mutant S to T (VL S27T) (Fab, V domains shown)
VH: B1 VH
VL: B1 VL with A25S, S27T
B3: 65D3 chimeric Fab, NNK library L3 mutant S to H (VL S25H) (Fab, V domains shown)
VH: B1 VH
VL: B1 VL with A25H
B4: 65D3 chimeric Fab, NNK library L5 mutant S to V (VL S27V) (Fab, V domains shown)
VH: B1 VH
VL: B1 VL with A25S, S27V
B5: 65D3 chimeric Fab, NNK library L18 mutant L to N (VL L55N) (Fab, V domains shown)
VH: B1 VH
VL: B1 VL with A25S, L55N
B6: 65D3 chimeric Fab, NNK library L8 mutant N to K (VL N30K) (Fab, V domains shown)
VH: B1 VH
VL: B1 VL with A25S, N30K
B7: 65D3 chimeric Fab, NNK library L3 mutant S to L (VL S25L) (Fab, V domains shown)
VH: B1 VH
VL: B1 VL with A25L
B8: 65D3 chimeric Fab, NNK library L2 mutant S to T (VL S24T) (Fab, V domains shown)
VH: B1 VH
VL: B1 VL with S24T, A25S
B9: 65D3 chimeric Fab, NNK library L5 mutant S to Y (VL S27Y) (Fab, V domains shown)
VH: B1 VH
VL: B1 VL with A25S, S27Y
B10: 65D3 chimeric Fab, NNK library H25 mutant K to R (VH K63R) (Fab, V domains shown)
VH: B1 VH with K63R
VL: B1 VL with A25S
B11: 65D3 chimeric Fab, NNK library L18 mutant L to S (VL L55S) (Fab, V domains shown)
VH: B1 VH
VL: B1 VL with A25S, L55S
B12: 65D3 chimeric Fab, NNK library L2 mutant S to G (VL S24G) (Fab, V domains shown)
VH: B1 VH
VL: B1 VL with S24G, A25S
B13: 65D3 chimeric Fab, NNK library L20 mutant S to H (VL S57H) (Fab, V domains shown)
VH: B1 VH
VL: B1 VL with A25S, S57H
B14: 65D3 chimeric Fab, NNK library L5 mutant S to M (VL S27M) (Fab, V domains shown)
VH: B1 VH
VL: B1 VL with A25S, S27M
B15: 65D3 chimeric Fab, NNK library L8 mutant N to H (VL N30H) (Fab, V domains shown)
VH: B1 VH
VL: B1 VL with A25S, N30H
B16: 65D3 chimeric Fab, NNK library L8 mutant N to R (VL N30R) (Fab, V domains shown)
VH: B1 VH
VL: B1 VL with A25S, N30R
B17: 65D3 chimeric Fab, NNK library L3 mutant S to K (VL S25K) (Fab, V domains shown)
VH: B1 VH
VL: B1 VL with A25K
B18: 65D3 chimeric Fab, NNK library L5 mutant S to K (VL S27K) (Fab, V domains shown)
VH: B1 VH
VL: B1 VL with A25S, S27K
B19: 65D3 chimeric Fab, NNK library L3 mutant S to T (VL S25T) (Fab, V domains shown)
VH: B1 VH
VL: B1 VL with A25T
B20: 65D3 chimeric Fab, NNK library L5 mutant S to F (VL S27F) (Fab, V domains shown)
VH: B1 VH
VL: B1 VL with A25S, S27F
B21: 65D3 chimeric Fab, NNK library L3 mutant S to R (VL S25R) (Fab, V domains shown)
VH: B1 VH
VL: B1 VL with A25R
B22: 65D3 chimeric Fab, NNK library L2 mutant S to M (VL S24M) (Fab, V domains shown)
VH: B1 VH
VL: B1 VL with S24M, A25S
B23: Antibody 74D3-1 (antibody, V domains shown)
VH: QSVEESGGRLVTPGTPLTLTCTVSGIDLSNNAMGWVRQAPGEGLEWIGTIYASGNTYYASWAKGRFAISKTSTTVDLKMTSLTAADTATYFCARLFNIWGPGTLVTVSS
VL: ADIVLTQSPASVSSAVGGTVTINCQASQSVYDNKNLSWFQQKPGQPPKQLIYAASTLASGVPSRFKGSGSGTQFTLTISGMQCDDAATYYCGGRDSGNIYDFGGGTEVVVK
B24: 65D3 chimeric Fab, NNK library H26 mutant G to K (H-G64K) (Fab, V domains shown)
VH: B1 VH with G64K
VL: B1 VL with A25S
B25: 65D3 chimeric Fab, NNK library L20 mutant S to T (L-S57T) (Fab, V domains shown)
VH: B1 VH
VL: B1 VL with A25S, S57T
B26: 65D3 chimeric Fab, NNK library H17 mutant S to W (H-S55W) (Fab, V domains shown)
VH: B1 VH with S55W
VL: B1 VL with A25S

Target: Peptide 1593 (…) (Mycobacterium tuberculosis)
Test: ELISA, NNK clone supernatant on coated peptide (22 hits)

| Binder | OD450 nm [OD450] | ratio (OD450 to WT OD450) |
| --- | --- | --- |
| B1 | 0.972 | 1.21 fold of WT |
| B2 | 1.11 | 1.43 fold of WT |
| B3 | 0.95 | 1.18 fold of WT |
| B4 | 1.09 | 1.41 fold of WT |
| B5 | 0.937 | 1.26 fold of WT |
| B6 | 1.04 | 1.37 fold of WT |
| B7 | 0.954 | 1.18 fold of WT |
| B8 | 1.07 | 1.29 fold of WT |
| B9 | 1.12 | 1.44 fold of WT |
| B10 | 0.872 | 1.4 fold of WT |
| B11 | 0.968 | 1.3 fold of WT |
| B12 | 1.11 | 1.33 fold of WT |
| B13 | 0.596 | 1.25 fold of WT |
| B14 | 1.14 | 1.47 fold of WT |
| B15 | 0.957 | 1.26 fold of WT |
| B16 | 0.958 | 1.26 fold of WT |
| B17 | 0.982 | 1.22 fold of WT |
| B18 | 1.16 | 1.49 fold of WT |
| B19 | 0.956 | 1.19 fold of WT |
| B20 | 1.11 | 1.43 fold of WT |
| B21 | 0.963 | 1.19 fold of WT |
| B22 | 1.09 | 1.31 fold of WT |

Target: Peptide 2004 (…) (Mycobacterium tuberculosis)
Test: not given

| Binder | rank by relative ELISA signal across the dilution series (1 = highest) |
| --- | --- |
| B23 | 9 |

Target: Peptide 1593 (…) (Mycobacterium tuberculosis)
Test: ELISA, NNK clone supernatant on coated peptide

| Binder | OD450 nm | ratio (OD450 to WT OD450) |
| --- | --- | --- |
| B1 | 0.972 OD450 | 1.21 fold of WT |
| B2 | 1.11 OD450 | 1.43 fold of WT |
| B3 | 0.95 OD450 and 0.97 OD450 | 1.18 fold of WT and 1.2 fold of WT |
| B4 | 1.09 OD450 | 1.41 fold of WT |
| B5 | 0.937 OD450 | 1.26 fold of WT |
| B6 | 1.04 OD450 and 1.03 OD450 | 1.37 fold of WT and 1.35 fold of WT |
| B7 | 0.954 OD450 | 1.18 fold of WT |
| B8 | 1.01 OD450 and 1.07 OD450 | 1.21 fold of WT and 1.29 fold of WT |
| B24 | 1.09 OD450 | 1.3 fold of WT |
| B9 | 1.1 OD450 and 1.12 OD450 | 1.41 fold of WT and 1.44 fold of WT |
| B10 | 0.872 OD450 | 1.4 fold of WT |
| B11 | 0.968 OD450 | 1.3 fold of WT |
| B12 | 1.02 OD450 and 1.11 OD450 | 1.23 fold of WT and 1.33 fold of WT |
| B13 | 0.596 OD450 | 1.25 fold of WT |
| B14 | 1.16 OD450 and 1.14 OD450 | 1.49 fold of WT and 1.47 fold of WT |
| B15 | 1.02 OD450 and 0.957 OD450 | 1.34 fold of WT and 1.25 fold of WT |
| B25 | 0.977 OD450 | 2.05 fold of WT |
| B17 | 0.982 OD450 | 1.22 fold of WT |
| B18 | 1.16 OD450 | 1.49 fold of WT |
| B19 | 0.956 OD450 | 1.19 fold of WT |
| B20 | 1.11 OD450 | 1.43 fold of WT |
| B21 | 0.963 OD450 and 0.995 OD450 and 1.04 OD450 | 1.19 fold of WT and 1.23 fold of WT and 1.29 fold of WT |
| B26 | 1.28 OD450 | 2.06 fold of WT |
| B22 | 1.15 OD450 and 1.09 OD450 | 1.38 fold of WT and 1.31 fold of WT |
